The text below walks through data of paper PMC6731095, “Regulation of Eag1 gating by its intracellular domains” (eLife, 2019).

For one data set, the target named is T1, Calmodulin (human, UniProt P0DP24 1-149).
T1 construct: Calmodulin, Homo sapiens, Uniprot P0DP24; Calcium (1 mM CaCl2) was present throughout; also called CaM; source: HEK293S GnTI-, infected with BacMam baculovirus together with Eag1 Δ3–13 baculovirus, co-purified with Eag1 Δ3–13
Nature of the data set: cryo-EM structure; Eag1 Δ3–13 and CaM co-expressed and co-purified; 20 mM Tris pH 8, 300 mM KCl, 1 mM CaCl2, 0.05% digitonin; 5 mg/ml; C4 symmetry imposed; two conformations. Conditions: both partners purified.

Data set [1] concerns the molecule itself. Described as above.

B1: Eag1 Δ3–13 (rat Kv10.1/Eag1/Kcnh1, residues 3–13 deleted, C-terminal unstructured region 773-886 removed) (natural protein, UniProt Q63472 1-962, looked up)
chain: MTQNTFLENIVRRSNDTNFVLGNAQIVDWPIVYSNDGFCKLSGYHRAEVMQKSSACSFMYGELTDKDTVEKVRQTFENYEMNSFEILMYKKNRTPVWFFVKIAPIRNEQDKVVLFLCTFSDITAFKQPIEDDSCKGWGKFARLTRALTSSRGVLQQLAPSVQKGENVHKHSRLAEVLQLGSDILPQYKQEAPKTPPHIILHYCVFKTTWDWIILILTFYTAILVPYNVSFKTRQNNVAWLVVDSIVDVIFLVDIVLNFHTTFVGPAGEVISDPKLIRMNYLKTWFVIDLLSCLPYDVINAFENVDEGISSLFSSLKVVRLLRLGRVARKLDHYIEYGAAVLVLLVCVFGLAAHWMACIWYSIGDYEIFDEDTKTIRNNSWLYQLALDIGTPYQFNGSGSGKWEGGPSKNSVYISSLYFTMTSLTSVGFGNIAPSTDIEKIFAVAIMMIGSLLYATIFGNVTTIFQQMYANTNRYHEMLNSVRDFLKLYQVPKGLSERVMDYIVSTWSMSRGIDTEKVLQICPKDMRADICVHLNRKVFKEHPAFRLASDGCLRALAMEFQTVHCAPGDLIYHAGESVDSLCFVVSGSLEVIQDDEVVAILGKGDVFGDVFWKEATLAQSCANVRALTYCDLHVIKRDALQKVLEFYTAFSHSFSRNLILTYNLRKRIVFRKISDVKREEEERMKRKNEAPLILPPDHPVRRLFQRFRQQKEARLAAERGGRDLDDLDVEKGNALTDHTSANHSLVKASVVTVRESPATPVSFYPIPEQTLQATVLEVKHELKEDIKALNAKMTSIEKQLSEILRILMSRGSSQSPQDTCEVSRPQSPESDRDIFGAS
notes: Kv10.1/Eag1/Kcnh1, Rattus norvegicus, Uniprot Q63472; whole channel with residues 3-13 of the PAS loop deleted and the C-terminal unstructured region 773-886 removed; The GFP tag was removed with PreScission protease; also called calmodulin insensitive mutant; not shown: GFP, C-terminal, cleaved; His6, C-terminal, cleaved
In the case of B1, the binding result with Calmodulin is “binds”. Besides, the “stoichiometry N” value in data set [1] came out at 4.

In general, stoichiometry N refers to a count of units in the complex or per binding partner.
